Assay results taken from PMC10786891, “Massively parallel profiling of RNA-targeting CRISPR-Cas13d”.

T1: EsCas13d, nuclease-dead (Eubacterium siraeum, UniProt B0MS50, R295A;H300A;R849A;H854A)
T1 sequence: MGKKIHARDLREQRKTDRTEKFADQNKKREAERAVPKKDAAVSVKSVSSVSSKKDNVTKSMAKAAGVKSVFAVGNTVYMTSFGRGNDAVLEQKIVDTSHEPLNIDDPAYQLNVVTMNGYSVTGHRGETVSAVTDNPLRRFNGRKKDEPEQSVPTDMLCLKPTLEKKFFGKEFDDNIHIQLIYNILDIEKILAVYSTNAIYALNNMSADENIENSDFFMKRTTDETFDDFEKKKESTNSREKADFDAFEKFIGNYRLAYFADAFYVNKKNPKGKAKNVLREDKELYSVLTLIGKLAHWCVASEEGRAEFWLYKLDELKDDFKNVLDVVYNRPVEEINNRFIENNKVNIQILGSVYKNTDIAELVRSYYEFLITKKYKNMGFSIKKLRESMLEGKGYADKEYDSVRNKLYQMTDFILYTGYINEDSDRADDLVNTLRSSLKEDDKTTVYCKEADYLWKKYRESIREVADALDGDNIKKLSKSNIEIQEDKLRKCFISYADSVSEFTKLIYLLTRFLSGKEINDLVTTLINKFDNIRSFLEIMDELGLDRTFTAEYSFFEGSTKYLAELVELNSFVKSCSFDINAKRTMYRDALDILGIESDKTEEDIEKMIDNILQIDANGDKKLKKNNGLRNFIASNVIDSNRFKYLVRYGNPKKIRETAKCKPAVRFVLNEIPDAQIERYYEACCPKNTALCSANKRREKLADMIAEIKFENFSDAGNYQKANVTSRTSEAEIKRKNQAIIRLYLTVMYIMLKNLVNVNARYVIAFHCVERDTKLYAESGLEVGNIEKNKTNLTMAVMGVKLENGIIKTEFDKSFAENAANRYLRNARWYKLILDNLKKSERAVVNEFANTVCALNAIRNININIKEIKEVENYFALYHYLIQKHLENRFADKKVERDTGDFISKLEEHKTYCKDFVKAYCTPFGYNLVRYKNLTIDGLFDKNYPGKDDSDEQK


Each binder was assayed against T1, EsCas13d, nuclease-dead (assay: crRNA (strand 1, pre-loaded); Mg2+; 40 mM Tris-HCl pH 7.5, 150 mM NaCl, 6 mM MgCl2, 1 mM DTT, 0.1% Tween-20, 0.2 mg/ml BSA; 25 C; 10 min per concentration, then washed). Conditions: tags: His6-TwinStrep-SUMO cleaved; N-terminal SNAP kept (SNAP-Surface 488); label: 3' end held by stalled T7 RNA polymerase.

| Binder | Kd |
| --- | --- |
| target 1 insA 3' of 15,insG 3' of 2 (mixed) RNA 1: CACCCGUGCAAAAAUGCAGGGGUCUAAAACUGAGCGGAUAACCUCUCUAUGG RNA 2: GGGAAUGGAUCCACAUCUACGAAUUCGUACCAUAGAGAAGGUUAUCCGCUCGACCGAGAUCGGAAGAGCACACGU | 6.7 ± 0.6 nM |
| target 1 insA 3' of 19,insC 3' of 18 (mixed) RNA 1: CACCCGUGCAAAAAUGCAGGGGUCUAAAACUGAGCGGAUAACCUCUCUAUGG RNA 2: GGGAAUGGAUCCACAUCUACGAAUUCGUACCAUAACGAGAGGUUAUCCGCUCACCGAGAUCGGAAGAGCACACGU | 56 ± 5 nM |
| target 1 insU 3' of 14,insC 3' of 8 (mixed) RNA 1: CACCCGUGCAAAAAUGCAGGGGUCUAAAACUGAGCGGAUAACCUCUCUAUGG RNA 2: GGGAAUGGAUCCACAUCUACGAAUUCGUACCAUAGAGAUGGUUAUCCCGCUCACCGAGAUCGGAAGAGCACACGU | 90 ± 40 nM |
| target 1 insA 3' of 6,insG 3' of 2 (mixed) RNA 1: CACCCGUGCAAAAAUGCAGGGGUCUAAAACUGAGCGGAUAACCUCUCUAUGG RNA 2: GGGAAUGGAUCCACAUCUACGAAUUCGUACCAUAGAGAGGUUAUCCAGCUCGACCGAGAUCGGAAGAGCACACGU | 27 ± 5 nM |
| target 1 insU 3' of 18,insA 3' of 13 (mixed) RNA 1: CACCCGUGCAAAAAUGCAGGGGUCUAAAACUGAGCGGAUAACCUCUCUAUGG RNA 2: GGGAAUGGAUCCACAUCUACGAAUUCGUACCAUAUGAGAGAGUUAUCCGCUCACCGAGAUCGGAAGAGCACACGU | 22.6 ± 2.4 nM |
| target 1 G5A,A9C (mixed) RNA 1: CACCCGUGCAAAAAUGCAGGGGUCUAAAACUGAGCGGAUAACCUCUCUAUGG RNA 2: GGGAAUGGAUCCACAUCUACGAAUUCGUACCAUAGAGAGGUUCUCCACUCACCGAGAUCGGAAGAGCACACGU | 16.7 ± 1.2 nM |
| target 1 A9U,U11G (mixed) RNA 1: CACCCGUGCAAAAAUGCAGGGGUCUAAAACUGAGCGGAUAACCUCUCUAUGG RNA 2: GGGAAUGGAUCCACAUCUACGAAUUCGUACCAUAGAGAGGGUUUCCGCUCACCGAGAUCGGAAGAGCACACGU | 10.1 ± 0.8 nM |
| target 1 insG 3' of 22,insC 3' of 9 (mixed) RNA 1: CACCCGUGCAAAAAUGCAGGGGUCUAAAACUGAGCGGAUAACCUCUCUAUGG RNA 2: GGGAAUGGAUCCACAUCUACGAAUUCGUACGCAUAGAGAGGUUACUCCGCUCACCGAGAUCGGAAGAGCACACGU | 26.3 ± 1.6 nM |
| target 1 insA 3' of 11,insG 3' of 4 (mixed) RNA 1: CACCCGUGCAAAAAUGCAGGGGUCUAAAACUGAGCGGAUAACCUCUCUAUGG RNA 2: GGGAAUGGAUCCACAUCUACGAAUUCGUACCAUAGAGAGGUAUAUCCGCGUCACCGAGAUCGGAAGAGCACACGU | 9.7 ± 0.5 nM |
| target 1 insC 3' of 5,insA 3' of 4 (mixed) RNA 1: CACCCGUGCAAAAAUGCAGGGGUCUAAAACUGAGCGGAUAACCUCUCUAUGG RNA 2: GGGAAUGGAUCCACAUCUACGAAUUCGUACCAUAGAGAGGUUAUCCGCCAUCACCGAGAUCGGAAGAGCACACGU | 13.9 ± 1.6 nM |
| target 1 complement block 2-5 (mixed) RNA 1: CACCCGUGCAAAAAUGCAGGGGUCUAAAACUGAGCGGAUAACCUCUCUAUGG RNA 2: GGGAAUGGAUCCACAUCUACGAAUUCGUACCAUAGAGAGGUUAUCCCGAGACCGAGAUCGGAAGAGCACACGU | 10.6 ± 0.6 nM |
| target 1 insC 3' of 14,insU 3' of 2 (mixed) RNA 1: CACCCGUGCAAAAAUGCAGGGGUCUAAAACUGAGCGGAUAACCUCUCUAUGG RNA 2: GGGAAUGGAUCCACAUCUACGAAUUCGUACCAUAGAGACGGUUAUCCGCUCUACCGAGAUCGGAAGAGCACACGU | 59 ± 11 nM |
| target 1 insG 3' of 4,insC 3' of 3 (mixed) RNA 1: CACCCGUGCAAAAAUGCAGGGGUCUAAAACUGAGCGGAUAACCUCUCUAUGG RNA 2: GGGAAUGGAUCCACAUCUACGAAUUCGUACCAUAGAGAGGUUAUCCGCGUCCACCGAGAUCGGAAGAGCACACGU | 13.4 ± 1.1 nM |
| target 1 insA 3' of 17,insU 3' of 17 (mixed) RNA 1: CACCCGUGCAAAAAUGCAGGGGUCUAAAACUGAGCGGAUAACCUCUCUAUGG RNA 2: GGGAAUGGAUCCACAUCUACGAAUUCGUACCAUAGAUAGAGGUUAUCCGCUCACCGAGAUCGGAAGAGCACACGU | 13.4 ± 1.2 nM |
| target 1 insC 3' of 9 (mixed) RNA 1: CACCCGUGCAAAAAUGCAGGGGUCUAAAACUGAGCGGAUAACCUCUCUAUGG RNA 2: GGGAAUGGAUCCACAUCUACGAAUUCGUACCAUAGAGAGGUUACUCCGCUCACCGAGAUCGGAAGAGCACACGU | 10.8 ± 0.4 nM |
| target 1 insC 3' of 20,insC 3' of 16 (mixed) RNA 1: CACCCGUGCAAAAAUGCAGGGGUCUAAAACUGAGCGGAUAACCUCUCUAUGG RNA 2: GGGAAUGGAUCCACAUCUACGAAUUCGUACCACUAGACGAGGUUAUCCGCUCACCGAGAUCGGAAGAGCACACGU | 16 ± 3 nM |
| target 1 insG 3' of 21,insU 3' of 21 (mixed) RNA 1: CACCCGUGCAAAAAUGCAGGGGUCUAAAACUGAGCGGAUAACCUCUCUAUGG RNA 2: GGGAAUGGAUCCACAUCUACGAAUUCGUACCGUAUAGAGAGGUUAUCCGCUCACCGAGAUCGGAAGAGCACACGU | 17.1 ± 1.2 nM |
| target 1 C2A,U3C (mixed) RNA 1: CACCCGUGCAAAAAUGCAGGGGUCUAAAACUGAGCGGAUAACCUCUCUAUGG RNA 2: GGGAAUGGAUCCACAUCUACGAAUUCGUACCAUAGAGAGGUUAUCCGCCAACCGAGAUCGGAAGAGCACACGU | 13 ± 1 nM |
| target 1 insA 3' of 11,insC 3' of 11 (mixed) RNA 1: CACCCGUGCAAAAAUGCAGGGGUCUAAAACUGAGCGGAUAACCUCUCUAUGG RNA 2: GGGAAUGGAUCCACAUCUACGAAUUCGUACCAUAGAGAGGUACUAUCCGCUCACCGAGAUCGGAAGAGCACACGU | 12.3 ± 0.9 nM |
| target 1 insU 3' of 22,insA 3' of 7 (mixed) RNA 1: CACCCGUGCAAAAAUGCAGGGGUCUAAAACUGAGCGGAUAACCUCUCUAUGG RNA 2: GGGAAUGGAUCCACAUCUACGAAUUCGUACUCAUAGAGAGGUUAUCACGCUCACCGAGAUCGGAAGAGCACACGU | 21.9 ± 1.3 nM |
| target 1 insG 3' of 8,insG 3' of 4 (mixed) RNA 1: CACCCGUGCAAAAAUGCAGGGGUCUAAAACUGAGCGGAUAACCUCUCUAUGG RNA 2: GGGAAUGGAUCCACAUCUACGAAUUCGUACCAUAGAGAGGUUAUGCCGCGUCACCGAGAUCGGAAGAGCACACGU | 7.1 ± 0.4 nM |
| target 1 insC 3' of 20,insG 3' of 10 (mixed) RNA 1: CACCCGUGCAAAAAUGCAGGGGUCUAAAACUGAGCGGAUAACCUCUCUAUGG RNA 2: GGGAAUGGAUCCACAUCUACGAAUUCGUACCACUAGAGAGGUUGAUCCGCUCACCGAGAUCGGAAGAGCACACGU | 13.4 ± 2 nM |
| target 1 insU 3' of 22,insA 3' of 21 (mixed) RNA 1: CACCCGUGCAAAAAUGCAGGGGUCUAAAACUGAGCGGAUAACCUCUCUAUGG RNA 2: GGGAAUGGAUCCACAUCUACGAAUUCGUACUCAAUAGAGAGGUUAUCCGCUCACCGAGAUCGGAAGAGCACACGU | 66 ± 6 nM |
| target 1 insU 3' of 17,insG 3' of 6 (mixed) RNA 1: CACCCGUGCAAAAAUGCAGGGGUCUAAAACUGAGCGGAUAACCUCUCUAUGG RNA 2: GGGAAUGGAUCCACAUCUACGAAUUCGUACCAUAGUAGAGGUUAUCCGGCUCACCGAGAUCGGAAGAGCACACGU | 29 ± 5 nM |
| target 1 G5A,U11A (mixed) RNA 1: CACCCGUGCAAAAAUGCAGGGGUCUAAAACUGAGCGGAUAACCUCUCUAUGG RNA 2: GGGAAUGGAUCCACAUCUACGAAUUCGUACCAUAGAGAGGAUAUCCACUCACCGAGAUCGGAAGAGCACACGU | 54 ± 10 nM |
| target 1 A1C,U11G (mixed) RNA 1: CACCCGUGCAAAAAUGCAGGGGUCUAAAACUGAGCGGAUAACCUCUCUAUGG RNA 2: GGGAAUGGAUCCACAUCUACGAAUUCGUACCAUAGAGAGGGUAUCCGCUCCCCGAGAUCGGAAGAGCACACGU | 50 ± 17 nM |
| target 1 insG 3' of 7,insA 3' of 7 (mixed) RNA 1: CACCCGUGCAAAAAUGCAGGGGUCUAAAACUGAGCGGAUAACCUCUCUAUGG RNA 2: GGGAAUGGAUCCACAUCUACGAAUUCGUACCAUAGAGAGGUUAUCGACGCUCACCGAGAUCGGAAGAGCACACGU | 10.5 ± 0.7 nM |
| target 1 insA 3' of 11,insG 3' of 10 (mixed) RNA 1: CACCCGUGCAAAAAUGCAGGGGUCUAAAACUGAGCGGAUAACCUCUCUAUGG RNA 2: GGGAAUGGAUCCACAUCUACGAAUUCGUACCAUAGAGAGGUAUGAUCCGCUCACCGAGAUCGGAAGAGCACACGU | 16.5 ± 0.7 nM |
